# Assay results reported in PMC7610691 (Nature structural & molecular biology, 2020).
# T1: Smc2 (S. cerevisiae condensin subunit) (S. cerevisiae, UniProt P38989 1-1170)
# T1 sequence: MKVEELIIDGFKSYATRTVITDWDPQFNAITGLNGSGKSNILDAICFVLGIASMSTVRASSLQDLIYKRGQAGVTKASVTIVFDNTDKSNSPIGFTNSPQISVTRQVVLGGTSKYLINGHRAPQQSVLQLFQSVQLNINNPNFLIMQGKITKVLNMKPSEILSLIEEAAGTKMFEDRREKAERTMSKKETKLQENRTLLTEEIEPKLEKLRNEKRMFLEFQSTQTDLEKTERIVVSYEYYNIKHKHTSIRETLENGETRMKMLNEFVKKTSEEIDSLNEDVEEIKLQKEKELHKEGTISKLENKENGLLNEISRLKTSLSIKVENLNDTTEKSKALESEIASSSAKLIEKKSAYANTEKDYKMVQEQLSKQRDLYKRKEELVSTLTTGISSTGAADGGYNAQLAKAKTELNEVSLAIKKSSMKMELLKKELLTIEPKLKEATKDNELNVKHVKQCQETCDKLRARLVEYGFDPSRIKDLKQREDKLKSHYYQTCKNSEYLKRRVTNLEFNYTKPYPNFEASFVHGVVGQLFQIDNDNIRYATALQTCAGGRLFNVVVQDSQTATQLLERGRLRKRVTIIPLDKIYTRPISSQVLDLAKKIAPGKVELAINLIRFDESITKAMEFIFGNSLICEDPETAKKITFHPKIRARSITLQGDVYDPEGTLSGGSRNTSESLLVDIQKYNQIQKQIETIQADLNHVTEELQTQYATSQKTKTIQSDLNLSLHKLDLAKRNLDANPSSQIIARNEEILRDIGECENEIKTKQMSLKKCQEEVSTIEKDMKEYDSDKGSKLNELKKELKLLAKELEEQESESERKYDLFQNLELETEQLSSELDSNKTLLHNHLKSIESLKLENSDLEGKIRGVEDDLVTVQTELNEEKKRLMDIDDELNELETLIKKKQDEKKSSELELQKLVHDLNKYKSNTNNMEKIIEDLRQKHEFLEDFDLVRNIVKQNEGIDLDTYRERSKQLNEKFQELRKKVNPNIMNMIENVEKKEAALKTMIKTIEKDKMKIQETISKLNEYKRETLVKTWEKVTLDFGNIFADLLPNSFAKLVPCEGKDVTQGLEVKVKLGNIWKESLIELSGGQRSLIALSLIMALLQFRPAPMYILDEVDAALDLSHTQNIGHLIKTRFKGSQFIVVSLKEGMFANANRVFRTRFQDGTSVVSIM
# T2: Smc4 (S. cerevisiae condensin subunit) (S. cerevisiae, UniProt Q12267 1-1418)
# T2 sequence: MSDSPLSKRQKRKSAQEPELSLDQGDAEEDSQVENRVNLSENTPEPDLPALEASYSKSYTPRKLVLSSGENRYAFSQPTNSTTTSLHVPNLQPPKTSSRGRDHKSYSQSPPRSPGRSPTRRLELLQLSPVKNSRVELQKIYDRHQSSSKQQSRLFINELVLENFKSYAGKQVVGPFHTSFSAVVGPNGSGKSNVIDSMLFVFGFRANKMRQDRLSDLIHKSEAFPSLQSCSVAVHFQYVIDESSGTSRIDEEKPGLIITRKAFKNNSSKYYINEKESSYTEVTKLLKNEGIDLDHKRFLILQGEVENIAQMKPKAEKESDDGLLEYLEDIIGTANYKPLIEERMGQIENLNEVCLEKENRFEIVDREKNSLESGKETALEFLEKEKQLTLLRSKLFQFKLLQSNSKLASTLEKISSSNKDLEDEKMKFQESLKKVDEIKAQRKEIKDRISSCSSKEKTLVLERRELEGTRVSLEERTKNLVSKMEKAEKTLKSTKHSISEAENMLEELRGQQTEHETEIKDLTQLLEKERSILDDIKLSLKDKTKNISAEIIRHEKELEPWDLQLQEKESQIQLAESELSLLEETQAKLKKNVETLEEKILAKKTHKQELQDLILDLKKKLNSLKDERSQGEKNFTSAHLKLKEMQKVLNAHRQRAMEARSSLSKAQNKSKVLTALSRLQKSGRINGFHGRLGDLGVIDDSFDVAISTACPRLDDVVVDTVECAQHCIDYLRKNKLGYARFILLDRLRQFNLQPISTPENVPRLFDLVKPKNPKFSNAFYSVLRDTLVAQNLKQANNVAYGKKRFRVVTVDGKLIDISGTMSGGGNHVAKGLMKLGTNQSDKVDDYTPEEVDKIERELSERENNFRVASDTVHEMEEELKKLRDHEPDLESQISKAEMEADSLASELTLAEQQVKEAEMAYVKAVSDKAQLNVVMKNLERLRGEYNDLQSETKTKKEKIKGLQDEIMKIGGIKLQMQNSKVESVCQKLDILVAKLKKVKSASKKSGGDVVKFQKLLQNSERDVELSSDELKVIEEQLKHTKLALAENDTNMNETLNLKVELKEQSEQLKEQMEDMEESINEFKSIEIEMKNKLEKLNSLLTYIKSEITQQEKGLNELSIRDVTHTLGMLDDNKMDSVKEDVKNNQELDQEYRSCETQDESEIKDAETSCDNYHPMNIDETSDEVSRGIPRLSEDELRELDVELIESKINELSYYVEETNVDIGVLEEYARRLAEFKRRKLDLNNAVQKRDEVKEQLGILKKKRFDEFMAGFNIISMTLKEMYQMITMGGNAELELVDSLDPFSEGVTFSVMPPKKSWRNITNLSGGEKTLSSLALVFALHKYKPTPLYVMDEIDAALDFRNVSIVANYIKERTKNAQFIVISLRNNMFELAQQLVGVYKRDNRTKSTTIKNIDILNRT
# B1: Brn1 (S. cerevisiae condensin kleisin subunit) (natural protein)
# chain: MTTQLRYENNDDDERVEYNLFTNRSTMMANFEEWIKMATDNKINSRNSWNFALIDYFYDLDVLKDGENNINFQKASATLDGCIKIYSSRVDSVTTETGKLLSGLAQRKTNGASNGDDSNGGNGEGLGGDSDEANIEIDPLTGMPISNDPDVNNTRRRVYNRVLETTLVEFETIKMKELDQELIIDPLFKKALVDFDEGGAKSLLLNTLNIDNTARVIFDASIKDTQNVGQGKLQRKEEELIERDSLVDDENEPSQSLISTRNDSTVNDSVISAPSMEDEILSLGMDFIKFDQIAVCEISGSIEQLRNVVEDINQAKDFIENVNNRFDNFLTEEELQAAVPDNAEDDSDGFDMGMQQELCYPDENHDNTSHDEQDDDNVNSTTGSIFEKDLMAYFDENLNRNWRGREHWKVRNFKKANLVNKESDLLEETRTTIGDTTDKNTTDDKSMDTKKKHKQKKVLEIDFFKTDDSFEDKVFASKGRTKIDMPIKNRKNDTHYLLPDDFHFSTDRITRLFIKPGQKMSLFSHRKHTRGDVSSGLFEKSTVSANHSNNDIPTIADEHFWADNYERKEQEEKEKEQSKEVGDVVGGALDNPFEDDMDGVDFNQAFEGTDDNEEASVKLDLQDDEDHKFPIRENKVTYSRVSKKVDVRRLKKNVWRSINNLIQEHDSRKNREQSSNDSETHTEDESTKELKFSDIIQGISKMYSDDTLKDISTSFCFICLLHLANEHGLQITHTENYNDLIVNYEDLATTQAAS
# Key:
# [1] = target: T1, Smc2 (S. cerevisiae condensin subunit); assay: cryo-EM structure
# [2] = target: T2, Smc4 (S. cerevisiae condensin subunit); assay: cryo-EM structure
binder,measurement,setting,value
B1,binding result,[1],binds
same,binding result,[2],binds
